These results are taken from US20110286981A1 (ZEALAND PHARMA A S, published 2011).

The labels stand for the following.
B1: L006-0108 (peptide)
peptide: H-HSQGTFTSDYSKYLDERAAKDFIEWLLSA-NH2
B2: L006-0136 (peptide)
peptide: H-HSQGTFTSDYSKYLDERRAKDFIEWLLAA-NH2
B3: L006-0128 (peptide)
peptide: H-HSQGTFTSDYSKYLDERRAKDFIRWLLSA-NH2
B4: L006-0094 (peptide)
peptide: H-HSQGTFTSDYSKYLDKRRAEDFIKWLLSA-NH2
B5: L006-0093 (peptide)
peptide: H-HSQGTFTSDYSKYLDDRRARDFIDWLLSA-NH2
B6: L006-0084 (peptide)
peptide: H-HSQGTFTSDYSKYLDERRAKDFIQWLLSA-NH2
B7: L006-0082 (peptide)
peptide: H-HSQGTFTSDYSKYLDERRAQDFIEWLLSA-NH2
B8: L006-0090 (peptide)
peptide: H-HSQGTFTSDYSKYLDSRRAQDFIEWLLSA-NH2
B9: L006-0081 (peptide)
peptide: H-HSQGTFTSDYSKYLDSRRAKDFIEWLLSA-NH2
B10: L006-0129 (peptide)
peptide: H-HSQGTFTSDYSKYLDERRAKDFIDWLLSA-NH2
B11: L006-0138 (peptide)
peptide: H-HSQGTFTSDYSKYLDERRAKDFIEWLLRA-NH2

One assay deals with human glucagon-like peptide 1 receptor (human, UniProt P43220 24-463). Description: cell-based or functional assay.
Chain of human glucagon-like peptide 1 receptor (P43220 24-463): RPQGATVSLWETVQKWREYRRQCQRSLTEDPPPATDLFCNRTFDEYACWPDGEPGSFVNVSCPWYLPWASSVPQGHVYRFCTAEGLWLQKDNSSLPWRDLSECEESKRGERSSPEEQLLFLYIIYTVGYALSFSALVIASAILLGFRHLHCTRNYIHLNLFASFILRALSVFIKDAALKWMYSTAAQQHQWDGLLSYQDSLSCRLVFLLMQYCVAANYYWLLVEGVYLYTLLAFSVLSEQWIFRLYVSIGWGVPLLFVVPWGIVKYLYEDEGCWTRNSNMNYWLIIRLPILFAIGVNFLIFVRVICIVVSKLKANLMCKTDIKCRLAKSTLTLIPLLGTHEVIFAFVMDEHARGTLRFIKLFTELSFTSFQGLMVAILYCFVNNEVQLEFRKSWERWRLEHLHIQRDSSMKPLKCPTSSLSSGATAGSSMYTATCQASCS
For the molecule B1, the “GLP-1R EC50 (cAMP formation in HEK293 cells expressing human GLP-1-R)” value (“GLP-1R EC50” for short) was determined as 0.53 nmol.

Turning to B2, the “GLP-1R EC50” value was found to be 0.22 nmol.

On to B3, for which the “GLP-1R EC50” value came out at 0.16 nmol.

On to B4, for which the “GLP-1R EC50” value came to 0.16 nmol.

On to B5, for which the “GLP-1R EC50” value came out at 0.07 nmol.

As to B6, the “GLP-1R EC50” value stood at 0.07 nmol.

Take B7: the “GLP-1R EC50” value was 0.09 nmol.

On to B8, for which the “GLP-1R EC50” value turned out to be 0.15 nmol.

On to B9, for which the “GLP-1R EC50” value turned out to be 0.14 nmol.

For the molecule B10, the “GLP-1R EC50” value worked out at 0.2 nmol.

For the molecule B11, the “GLP-1R EC50” value was 0.29 nmol.

The target in the next assay is human glucagon receptor (human, UniProt P47871 26-477). Description: cell-based or functional assay.
On to B1, for which the “GLUR EC50 (cAMP formation in HEK293 cells expressing human Glucagon-R)” value (“GLUR EC50” below) turned out to be 0.81 nmol.

Regarding B2, the “GLUR EC50” value came out at 0.33 nmol.

In the case of B3, the “GLUR EC50” value worked out at 0.22 nmol.

For B4, the “GLUR EC50” value came to 0.25 nmol.

Take B5: the “GLUR EC50” value was found to be 0.1 nmol.

Take B6: the “GLUR EC50” value was determined as 0.13 nmol.

B8: the “GLUR EC50” value is 0.22 nmol.

As for B9, the “GLUR EC50” value came to 0.23 nmol.

B10: the “GLUR EC50” value came out at 0.24 nmol.

As for B11, the “GLUR EC50” value came out at 0.38 nmol.
